# Article PMC5356443, “Structural, mechanistic and functional insight into gliotoxin bis-thiomethylation in Aspergillus fumigatus” (Open Biology, 2017)
# How the values were obtained:
# [1] = system: [H][C@]12C(=CC=C[C@@H]1O)C[C@@]1(S)C(=O)N(C)[C@@](S)(CO)C(=O)N12; assay: RP-HPLC methyltransferase assay with purified enzyme, Km determination; assay type: biochemical, Aspergillus fumigatus; settings: SAM
# [2] = molecular target: GtmA (gliotoxin S-methyltransferase, TmtA) (Aspergillus fumigatus, UniProt Q4X158); assay: as above; assay type: biochemical
# GtmA (gliotoxin S-methyltransferase, TmtA), sequence (Q4X158 whole entry): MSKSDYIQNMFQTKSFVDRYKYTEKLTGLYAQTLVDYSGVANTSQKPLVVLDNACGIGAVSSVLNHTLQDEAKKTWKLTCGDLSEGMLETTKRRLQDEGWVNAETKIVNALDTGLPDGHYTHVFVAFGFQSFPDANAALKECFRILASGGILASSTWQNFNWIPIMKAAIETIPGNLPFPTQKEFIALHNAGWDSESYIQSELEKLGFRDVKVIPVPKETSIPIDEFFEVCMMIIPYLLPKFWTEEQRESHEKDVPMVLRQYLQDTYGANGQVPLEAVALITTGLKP
Compound,Km [1] [µM],Km [2] [µM]
"GtmA (gliotoxin S-methyltransferase, TmtA) (Aspergillus fumigatus Af293)",38.62,
"CS[C@@]12CC3=CC=C[C@H](O)[C@H]3N1C(=O)[C@](S)(CO)N(C)C2=O [MmGT, monomethylgliotoxin]",,184
